pKd: −log10 of the molar value.
Biological target: fluorescein-labeled NS1 (89–237) (H3N2) (influenza A virus H3N2)
Assay: […]

Sequence of fluorescein-labeled NS1 (89–237) (H3N2) (influenza A virus H3N2) (P03495 89-237 limits assumed): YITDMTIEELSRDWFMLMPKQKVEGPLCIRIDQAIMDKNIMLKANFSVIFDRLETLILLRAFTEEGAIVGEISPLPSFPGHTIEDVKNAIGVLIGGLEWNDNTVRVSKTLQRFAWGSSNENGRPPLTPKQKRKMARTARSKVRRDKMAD
Sequence of human eIF4E (P06730 whole entry): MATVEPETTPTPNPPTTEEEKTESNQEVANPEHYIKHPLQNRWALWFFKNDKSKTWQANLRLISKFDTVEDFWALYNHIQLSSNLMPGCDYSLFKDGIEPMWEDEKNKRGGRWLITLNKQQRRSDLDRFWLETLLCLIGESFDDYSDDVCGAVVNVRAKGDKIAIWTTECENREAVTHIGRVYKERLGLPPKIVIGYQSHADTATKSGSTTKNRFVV

| Substance | pKd |
| --- | --- |
| eIF4G1 (88–653) (from UniProt Q04637 88-653) (domain or fragment) | 6.58 |
| human eIF4E (from UniProt P06730 1-217) (natural protein) | 6.75 |

— publication PMC10164398
